Common to all, as to assay: SPR
Assay [1] addresses C5aR (wheat-germ proteoliposome) (human) (UniProt P21730).
Assay [2] deals with CXCR1 (wheat-germ proteoliposome) (human) (UniProt P25024).
Assay [3] addresses CXCR2 (wheat-germ proteoliposome) (human) (UniProt P25025).
Assay [4] deals with CCR2 (wheat-germ proteoliposome) (human) (UniProt P41597).

Chain of UniProt P25024 (P25024 whole entry): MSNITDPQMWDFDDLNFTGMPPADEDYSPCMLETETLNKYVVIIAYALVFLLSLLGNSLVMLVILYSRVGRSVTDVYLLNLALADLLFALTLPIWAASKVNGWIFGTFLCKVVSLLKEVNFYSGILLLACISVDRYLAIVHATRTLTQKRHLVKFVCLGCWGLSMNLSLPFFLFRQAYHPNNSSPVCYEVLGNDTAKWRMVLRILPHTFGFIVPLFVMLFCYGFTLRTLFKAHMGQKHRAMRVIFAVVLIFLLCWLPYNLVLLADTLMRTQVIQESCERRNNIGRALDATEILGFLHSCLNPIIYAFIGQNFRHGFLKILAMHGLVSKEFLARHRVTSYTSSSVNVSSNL
Chain of UniProt P25025 (P25025 whole entry): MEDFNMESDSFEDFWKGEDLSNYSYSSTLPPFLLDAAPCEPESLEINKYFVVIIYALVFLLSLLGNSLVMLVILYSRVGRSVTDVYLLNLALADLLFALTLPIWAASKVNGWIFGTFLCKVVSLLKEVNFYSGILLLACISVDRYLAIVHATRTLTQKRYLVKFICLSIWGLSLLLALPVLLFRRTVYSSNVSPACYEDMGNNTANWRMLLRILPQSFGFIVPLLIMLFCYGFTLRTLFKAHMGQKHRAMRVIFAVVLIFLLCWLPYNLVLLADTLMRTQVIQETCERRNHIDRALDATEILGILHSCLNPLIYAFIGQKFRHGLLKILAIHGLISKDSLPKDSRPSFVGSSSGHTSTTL
Chain of UniProt P21730 (P21730 whole entry): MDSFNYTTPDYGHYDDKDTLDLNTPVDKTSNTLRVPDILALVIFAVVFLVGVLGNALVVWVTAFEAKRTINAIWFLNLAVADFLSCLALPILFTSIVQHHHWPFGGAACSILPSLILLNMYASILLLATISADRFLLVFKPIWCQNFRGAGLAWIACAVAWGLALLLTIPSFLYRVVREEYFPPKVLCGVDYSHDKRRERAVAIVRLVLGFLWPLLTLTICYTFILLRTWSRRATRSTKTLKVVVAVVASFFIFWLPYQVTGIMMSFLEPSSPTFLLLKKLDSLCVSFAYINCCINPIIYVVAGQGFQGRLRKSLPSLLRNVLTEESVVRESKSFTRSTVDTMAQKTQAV

In assay [1], “γ-Hemolysin component HlgC (from UniProt Q07227 30-315) (natural protein)” registered a Kd of 5.64 nM. Regarding “γ-Hemolysin component HlgA (from UniProt P0A074 30-309) (natural protein)”, the Kd in assay [2] stood at 5.69 nM; in assay [3] it was 27.2 nM; in assay [4] it was 3.51 nM. With “MCP-1 (from UniProt P13500 24-99) (ligand)”, the Kd in assay [4] amounted to 0.84 nM.

By Kd is commonly meant a measure of binding affinity in units of concentration.

(Values after paper PMC4228697.)
